# Changes are numbered by the printed parent chain.
# B1: MLCK-1 (antibody, V domains shown)
# VH: EVQLLESGGGLVQPGGSLRLSCAASGFTFSDYAMSWVRQAPGKGLEWVSWIYSDDGNKYYADSVKGRFTISRDNSKNTLYLQMNSLRAEDTAVYYCARADPPFDYWGQGTLVTVSS
# VL: QSVLTQPPSASGTPGQRVTISCTGSSSNIGSNNVSWYQQLPGTAPKLLIYSDNNRPSGVPDRFSGSKSGTSASLAISGLRSEDEADYYCATWDSSLNGYVFGGGTKLTVL
# notes: Human monoclonal antibody from a phage scFv library; Only the variable regions are tied to the clone; In flow cytometry it was detected with an anti-human IgG Fc-specific antibody, so it carries a human Fc; also called anti-DLL4 antibody
# B2: MLCK-2 (antibody, V domains shown)
# VH: B1 VH with D54G, D55S, P101W
# VL: B1 VL with N33D, S35T, S51A, N53S, N54K, A90G, S94Y, N97S, G98A
# notes: Human monoclonal antibody from a phage scFv library; Only the variable regions are tied to the clone; In flow cytometry it was detected with an anti-human IgG Fc-specific antibody, so it carries a human Fc; also called MLCK-2 mAb; anti-DLL4 antibody
# B3: MLCK-3 (antibody, V domains shown)
# VH: B1 VH with S53Y, D55S, N57S, P101L
# VL: B1 VL with T23S, S31N, N33A, S35T, N54H, A90G, S94A, N97S
# notes: as for B1
# B4: MLCK-4 (antibody, V domains shown)
# VH: EVQLLESGGGLVQPGGSLRLSCAASGFTFSNYAMSWVRQAPGKGLEWVSWIYHGGGDTYYADSVKGRFTISRDNSKNTLYLQMNSLRAEDTAVYYCARGPNYTFGKPFDYWGQGTLVTVSS
# VL: QSVLTQPPSASGTPGQRVTISCRGSPSNIGNNTVYWYQQLPGTAPKLLIYSDSQRPSGVPDRFSGSKSGTSASLAISGLRSEDEADYYCGSWDYSLSAYVFGGGTKLTVL
# notes: as for B1
# Columns and labels:
# [1] = target: T1, human DLL4 extracellular domain protein, His-tagged (R&D System Cat: 1506-D4/CF) (human, UniProt Q9NR61 27-522); assay: SPR (Biacore T200), hDLL4 immobilized on CM5 chip, antibody as analyte, 1:1 model
# T1 construct: range 27-522; Bought protein; also called hDLL4-His; human DLL4-His; not shown: C-terminal histidine tag
# Procedure: (§1) To be specific, Biacore T200 was used in SPR analysis and HBS-EP (10 mM HEPES, pH7.4, 150 mM NaCl, 3 mM EDTA, 0.15% surfactant P20) was used as a running buffer. Surface preparation was done by using a surface preparation target immobilization tool of a wizard program (condition: 25° C., 5 μl/min). A ligand, hDLL4, was diluted in 10 mM sodium acetate (pH 4.5) to a final concentration of 10 μg/ml, and then immobilized to the surface of CM5 chip by a target immobilization level for each test group. In the immobilization process, two flow cells were included as one set wherein the first flow cell was set as a blank and the second flow cell has hDLL4 immobilized to the surface thereof in the present experiment. The first flow cell acted as a reference to account for experimental variability due to nonspecific bindings and buffer effects, and in the analysis, subtracted RU values (Fc2-Fc1) were used as experimental results. Anti-DLL4 antibodies that bind to hDLL4, i.e., MLCK1, MLCK2, MLCK-3, and MLCK4, were diluted in a running buffer to a final molar concentration of 100 nM, serially diluted 5 times, and each of the 5 dilutions was analyzed. The sample to be analyzed was prepared to have high purity and high concentration, enough to be diluted more than 100 times at minimum, thereby minimizing buffer effect. All analysis was done by using a wizard program, screening duplicates for each sample and a regeneration step was included in between each analysis step, so that the standard of experiment remains constant. The experimental results were analyzed by Biaevaluation software version 4.0. At this time, to determine the RU values (Fc2-Fc1 and Fc4-Fc3), the baseline was set to zero, the value measured at a buffer injection part (analyte, 0 nM) was subtracted from a whole sensorgram. Then, the resulting RU value was analyzed by a 1:1 binding model to determine a binding affinity. The factors to be analyzed include kₐ(M⁻¹s⁻¹), kd(s⁻¹), Kₐ(1/M), and KD(M). […] Equilibrium dissociation constant KD(M) was calculated by dividing kd with kₐ (kd/kₐ).
# [2] = target: T1, human DLL4 extracellular domain …; assay: ELISA, plate coated with hDLL4-His 2 ug/ml, bound antibody detected with HRP-conjugated anti-Fab
# Procedure: The anti-DLL4 antibody-antigen binding affinity was evaluated using an ELISA-based binding test. A 96-well microtiter plate (Nunc-Immuno Plate, NUNC, Rochester, N.Y.) was coated with 2 μg/ml of hDLL4-His protein in PBS solution at 4° C. overnight, and non-specific binding sites were blocked with BSA (bovine serum albumin) for 2 hours. The anti-DLL4 antibody (purified protein) on the 96-well microtiter plate was transferred to a microtiter plate at an antibody concentration ranging from 0 nM to 128 nM. Then, the plate was incubated for 2 hours, after which the plate was washed five times with 0.05% tween 20-containing PBS, and in order to detect the plate-bound DLL4 antibody, an HRP-conjugated Fab polyclonal antibody reagent (Pierce) was diluted at a ratio of 1:10,000, transferred to the washed microtiter plate, and then allowed to react at 37° C. for 1 hour. After the reaction, color development was performed using a colorimetric substrate (3,3′,5,5′-tetramethylbenzidine; Sigma-Aldrich Co.). The enzymatic reaction was stopped using 0.5 mol/l of sulfuric acid, and the absorbance at 450 nm-650 nm was recorded using a microplate reader (molecular device). As a result, it was shown that the binding affinities of the antibodies for DLL4 increased in a concentration-dependent manner (FIG. 2).
# [3] = target: T2, human DLL4 stably expressed on HEK 293 cells (human, UniProt Q9NR61 27-685); assay: flow cytometry on HEK293 cells stably expressing human DLL4, 10 ug antibody
# T2 construct: whole, on cells; also called human DLL4 antigen
# Procedure: Specifically, human embryonic kidney cells (HEK 293) that stably express human DLL4 were prepared, and the degree of binding of the anti-DLL4 antibodies to DLL4 was measured using the prepared cells and a FACSCalibur system (BD Biosciences). The HEK293 cells that stably expressed DLL4 were dissociated, washed with PBS, adjusted to a cell number of 1×10⁵ cells/200 μl PBS, treated with 10 μg of each of the DLL4 monoclonal antibodies, and then allowed to react at room temperature for 30 minutes. After the reaction, the cells were washed with PBS and reacted with an FITC-labeled Fc-specific antibody (goat anti-human IgG FITC conjugate, Fc specific, Sigma, F9512; concentration: 2.0 mg/ml) at a concentration of 5 μl/1×10⁵ cells/200 μl PBS at 4° C. for 1 hours. After the reaction, the cells were washed with PBS and analyzed using a FACSCalibur system. A control group was treated only with an FITC-labeled Fc-specific antibody. The results of analysis of human DLL4-minoclonal antibody-FITC binding in the test group treated with each of the DLL4 monoclonal antibodies were compared with those in the control group.
# [4] = target: T1, human DLL4 extracellular domain …; assay: SPR (Biacore T200), hDLL4 immobilised on a CM5 chip, antibody as analyte; the table says 'Bivalent binding'
# Procedure: as §1, with “Then, the resulting RU value was analyzed by a 1:1 binding model to determine a binding affinity.” left out
# [5] = target: T1, human DLL4 extracellular domain …; assay: ELISA solution competition: antibody premixed with DLL4-His; blocks binding to plate-coated hNotch-1-hFc
# Procedure: Each well of a 96-well microtiter plate (Nunc-Immuno Plate, NUNC, Rochester, N.Y.) was coated with 100 μl of 500 ng/ml of hNotch-1-hFc protein (R&D Systems) (diluted in PBS) at 4° C. overnight, and non-specific binding sites were blocked with BSA for 2 hours.
# The anti-DLL4 antibody (purified protein) on the 96-well microtiter plate was premixed with serial dilutions of antigen protein (DLL4 antigen, 600 ng/m) at an antibody concentration ranging from 0 nM to 140 nM. The antigen/antibody mixture was incubated for 30 minutes, and then transferred to a microtiter plate precoated with the DLL4 receptor hNotch-1 protein (50 ng/well) in order to measure free antibody. Then, the plate was incubated for 2 hours and washed five times with 0.05% tween 20-containing PBS. In order to detect the DLL4 antigen bound to the plate, an HRP-conjugated His anti-mouse IgG polyclonal antibody reagent (Roche applied science) was diluted at a ratio of 1:500, and the washed microtiter plate was treated with the diluted antibody reagent, and then allowed to react at 37° C. for 1 hour. Then, color development was performed using a colorimetric substrate (3,3′,5,5′-tetramethylbenzidine; Sigma-Aldrich Co.), and the enzymatic reaction was stopped using 0.5 mol/l of sulfuric acid. The amounts of antibodies required to achieve a 50% decrease in human DLL4-His bound to plate-coated Notch 1-Fc (IC₅₀) are shown in Table 1 below.
# T1 sequence (Q9NR61 27-522 limits assumed): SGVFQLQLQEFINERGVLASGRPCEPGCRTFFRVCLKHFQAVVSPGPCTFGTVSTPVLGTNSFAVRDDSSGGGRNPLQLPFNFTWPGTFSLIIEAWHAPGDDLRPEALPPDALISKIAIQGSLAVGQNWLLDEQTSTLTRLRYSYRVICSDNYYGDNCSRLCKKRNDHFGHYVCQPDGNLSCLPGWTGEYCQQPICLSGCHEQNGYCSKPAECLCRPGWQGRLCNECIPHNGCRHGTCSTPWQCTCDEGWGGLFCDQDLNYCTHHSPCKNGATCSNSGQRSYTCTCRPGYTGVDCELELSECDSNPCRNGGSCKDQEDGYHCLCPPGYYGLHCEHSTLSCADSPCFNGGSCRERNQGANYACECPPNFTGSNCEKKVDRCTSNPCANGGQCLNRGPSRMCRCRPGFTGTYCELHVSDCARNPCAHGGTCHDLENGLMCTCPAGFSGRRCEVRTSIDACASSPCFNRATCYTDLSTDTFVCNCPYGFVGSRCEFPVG
# T2 sequence (Q9NR61 27-685): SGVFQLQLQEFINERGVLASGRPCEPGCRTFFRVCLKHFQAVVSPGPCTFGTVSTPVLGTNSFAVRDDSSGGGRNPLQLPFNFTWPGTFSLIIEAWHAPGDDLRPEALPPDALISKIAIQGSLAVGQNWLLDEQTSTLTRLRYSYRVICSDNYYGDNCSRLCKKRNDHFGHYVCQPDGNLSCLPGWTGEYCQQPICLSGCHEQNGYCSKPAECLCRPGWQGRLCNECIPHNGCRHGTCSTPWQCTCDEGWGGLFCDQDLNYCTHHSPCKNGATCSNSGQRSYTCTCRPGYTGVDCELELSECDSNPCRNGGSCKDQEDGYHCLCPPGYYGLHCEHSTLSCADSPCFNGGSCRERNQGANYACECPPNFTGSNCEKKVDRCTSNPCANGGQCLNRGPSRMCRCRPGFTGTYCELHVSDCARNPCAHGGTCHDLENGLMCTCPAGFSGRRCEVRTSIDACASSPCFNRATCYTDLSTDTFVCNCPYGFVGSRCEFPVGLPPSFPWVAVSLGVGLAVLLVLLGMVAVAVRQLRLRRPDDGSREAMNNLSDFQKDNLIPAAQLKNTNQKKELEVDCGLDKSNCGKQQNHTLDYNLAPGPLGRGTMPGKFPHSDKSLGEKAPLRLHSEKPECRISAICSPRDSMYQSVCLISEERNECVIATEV
Binder,Kd [1] [nM],EC50 (read off the curve) [2] [pM],degree of binding to DLL4 antigen compared to the control group [3] [%],Ka [4] [M⁻¹],koff [4] [s⁻¹],kon [4] [M⁻¹ s⁻¹],IC50 [5] [nM]
B1,263,~0.1,47.8,3.8e+06,0.0169,64100,1.32
B2,1.71,~0.04,59,5.86e+08,0.000232,136000,0.41
B3,6.96,~0.05,52.9,1.44e+08,0.00359,516000,0.38
B4,2130,~0.2,52.5,469000,0.00474,2220,3.72

# — patent US20150183856A1 (ABLBIO, published 2015)
